Assay results from IntAct's records for PubMed 23954414.

B1: Beclin-2 (Homo sapiens), A8MW95 (parent)
chain: MSSIRFLCQRCHQALKLSGSSESRSLPAAPAPTSGQAEPGDTREPGVTTREVTDAEEQQDGASSRSPPGDGSVSKGHANIFTLLGELGAMHMLSSIQKAAGDIFDIVSGQAVVDHPLCEECTDSLLEQLDIQLALTEADSQNYQRCLETGELATSEDEAAALRAELRDLELEEARLVQELEDVDRNNARAAADLQAAQAEAAELDQQERQHYRDYSALKRQQLELLDQLGNVENQLQYARVQRDRLKEINCFTATFEIWVEGPLGVINNFRLGRLPTVRVGWNEINTAWGQAALLLLTLANTIGLQFQRYRLIPCGNHSYLKSLTDDRTELPLFCYGGQDVFLNNKYDRAMVAFLDCMQQFKEEAEKGELGLSLPYGIQVETGLMEDVGGRGECYSIRTHLNTQELWTKALKFMLINFKWSLIWVASRYQK
partner: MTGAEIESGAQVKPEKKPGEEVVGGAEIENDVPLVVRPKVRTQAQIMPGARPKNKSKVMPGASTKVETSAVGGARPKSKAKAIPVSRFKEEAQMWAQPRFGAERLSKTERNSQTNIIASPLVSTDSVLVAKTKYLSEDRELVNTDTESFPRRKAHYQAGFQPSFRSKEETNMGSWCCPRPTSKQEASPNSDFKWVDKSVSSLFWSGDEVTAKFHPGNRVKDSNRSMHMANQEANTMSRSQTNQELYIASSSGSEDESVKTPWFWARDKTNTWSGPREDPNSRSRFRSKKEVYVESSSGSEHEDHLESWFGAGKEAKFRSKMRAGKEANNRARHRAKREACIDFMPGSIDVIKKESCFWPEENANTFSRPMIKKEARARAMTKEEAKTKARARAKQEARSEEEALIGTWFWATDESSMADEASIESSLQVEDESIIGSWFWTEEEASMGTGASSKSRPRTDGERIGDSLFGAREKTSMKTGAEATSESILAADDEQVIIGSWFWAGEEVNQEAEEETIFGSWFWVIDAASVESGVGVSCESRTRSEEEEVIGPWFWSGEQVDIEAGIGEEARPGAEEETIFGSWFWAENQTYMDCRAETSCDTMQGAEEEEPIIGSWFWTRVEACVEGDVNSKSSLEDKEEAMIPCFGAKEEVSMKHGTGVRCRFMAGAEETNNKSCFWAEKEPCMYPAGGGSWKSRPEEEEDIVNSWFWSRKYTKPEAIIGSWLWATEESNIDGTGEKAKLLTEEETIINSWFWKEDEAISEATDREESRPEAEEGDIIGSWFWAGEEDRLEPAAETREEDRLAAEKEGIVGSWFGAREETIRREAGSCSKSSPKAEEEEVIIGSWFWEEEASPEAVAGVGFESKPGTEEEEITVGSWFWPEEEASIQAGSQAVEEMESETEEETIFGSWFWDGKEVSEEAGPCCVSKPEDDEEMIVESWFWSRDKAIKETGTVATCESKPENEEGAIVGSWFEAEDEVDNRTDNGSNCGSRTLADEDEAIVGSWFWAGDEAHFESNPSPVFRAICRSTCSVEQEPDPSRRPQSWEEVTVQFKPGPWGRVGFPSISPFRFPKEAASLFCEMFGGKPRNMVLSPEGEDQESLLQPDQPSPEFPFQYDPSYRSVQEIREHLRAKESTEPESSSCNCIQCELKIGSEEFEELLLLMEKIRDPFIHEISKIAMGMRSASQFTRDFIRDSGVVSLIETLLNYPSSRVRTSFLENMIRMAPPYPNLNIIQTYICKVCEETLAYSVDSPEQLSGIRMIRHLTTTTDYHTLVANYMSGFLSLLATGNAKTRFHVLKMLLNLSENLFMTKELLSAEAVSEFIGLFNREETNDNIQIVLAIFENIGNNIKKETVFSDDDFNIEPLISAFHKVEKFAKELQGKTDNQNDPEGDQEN

Variants of: B1
Conditions: with gasp1_human GPRASP1, Q5JY77

Row | Variant | effect of a mutation on the interaction
1 | MSSIRFLCQRCHQALKLSGSSESRSLPAAPAPTSGQAEPGDTREPGVTTREVTDAEEQQDGASSRSPPGDGSVSKGHANSFTLLGELGAMHMLSSIQKAAGDIFDIVSGQAVVDHPLCEECTDSLLEQLDIQLALTEADSQNYQRCLETGELATSEDEAAALRAELRDLELEEARLVQELEDVDRNNARAAADLQAAQAEAAELDQQERQHYRDYSALKRQQLELLDQLGNVENQLQYARVQRDRLKEINCFTATFEIWVEGPLGVINNFRLGRLPTVRVGWNEINTAWGQAALLLLTLANTIGLQFQRYRLIPCGNHSYLKSLTDDRTELPLFCYGGQDVFLNNKYDRAMVAFLDCMQQFKEEAEKGELGLSLPYGIQVETGLMEDVGGRGECYSIRTHLNTQELWTKALKFMLINFKWSLIWVASRYQK [I80S] | disrupting interaction strength
